# Measurements published in US20040156851A1, “HMGB1 combination therapies” (Critical Therapeutics, Inc., priority 2002, published 2004).
# B1: HMGB1: Recombinant full length human HMGB1, GST fusion system, SEQ ID NO:18; recombinant rat HMGB1 used in some experiments (protein, listed as Homo sapiens)
# chain: MGKGDPKKPTGKMSSYAFFVQTCREEHKKKHPDASVNFSEFSKKCSERWKTMSAKEKGKFEDMAKADKARYEREMKTYIPPKGETKKKFKDPNAPKRLPSAFFLFCSEYRPKIKGEHPGLSIGDVAKKLGEMWNNTAADDKQPYEKKAAKLKEKYEKDIAAYRAKGKPDAAKKGVVKAEKSKKKKEEEEDEEDEEDEEEEEDEEDEEDEEEDDDDE
# B2: B box: Human HMGB1 mutant containing only the B box, SEQ ID NO:20 (protein, listed as Homo sapiens)
# chain: FKDPNAPKRLPSAFFLFCSEYRPKIKGEHPGLSIGDVAKKLGEMWNNTAADDKQPYEKKAAKLKEKYEKDIAAY
# Experiments:
# RAW 264.7 cells [1] = test: 125I-HMGB1 cell surface binding to RAW 264.7 cells; parameters: species or system murine; conditions: 4° C., specific binding (FIG. 5A)
# Method: Purified HMGB1 protein (10 μg) was radiolabeled with 0.2 mCi of carrier-free ^125I (NEN Life Science Products Inc., Boston, Mass.) using Iodo-beads (Pierce, Rockford, Ill.) according to the manufacturer's instructions. ^125I-HMGB1 protein was separated from un-reacted ^125I by gel chromatography columns (P6 Micro Bio-Spin Chromatography Columns, Bio-Rad Laboratories, Hercules, Calif.) previously equilibrated with 300 mM sodium chloride, 17.5 mM sodium citrate, pH 7.0, and 0.1% bovine serum albumin (BSA). The specific activity of the eluted HMGB1 was about 2.8×10^6 cpm/μg protein. Cell surface binding studies were performed as previously described (Yang et al., Am. J. Physiol. 275:C675-C683, 1998). […] The radioactivity in the lysate was then measured using a gamma counter. Specific binding was determined as total binding minus the radioactivity obtained in the presence of an excess amount of unlabeled HMGB1 or A box proteins.
# To determine whether the HMGB1 A box acts as an antagonist by displacing HMGB1 binding, ^125I-labeled —HMGB1 was added to macrophage cultures and binding was measured at 4° C. after 2 hours. Binding assays in RAW 264.7 cells were performed as described herein. ^125I-HMGB1 binding was measured in RAW 264.7 cells plated in 24-well dishes for the times indicated in FIG. 5A. […] The specificity of binding was assessed as described in Example 1. […]
# RAW 264.7 cells [2] = test: TNF release from RAW 264.7 cells stimulated with HMGB1, mutants or B box peptides (L929 cytotoxicity bioassay); format: cell-based, murine
# Method: Murine macrophage-like RAW 264.7 cells (American Type Culture Collection, Rockville, Md.) were cultured in RPMI 1640 medium (Life Technologies, Grand Island, N.Y.) supplemented with 10% fetal bovine serum (Gemini, Catabasas, Calif.), penicillin and streptomycin (Life Technologies) and were used at 90% confluence in serum-free Opti-MEM I medium (Life Technologies, Grand Island, N.Y.). […] Polymyxin B was not used in experiments of synthetic peptide studies.
# TNF release was measured by a standard murine fibroblast L929 (ATCC, American Type Culture Collection, Rockville, Md.) cytotoxicity bioassay (Bianchi et al., Journal of Experimental Medicine 183:927-936, 1996) with the minimum detectable concentration of 30 pg/ml. Recombinant mouse TNF was obtained from R&D system Inc., (Minneapolis, Minn.). Murine fibroblast L929 cells (ATCC) were cultured in DMEM (Life Technologies, Grand Island, N.Y.) supplemented with 10% fetal bovine serum (Gemini, Catabasas, Calif.), penicillin (50 units/ml) and streptomycin (50 μg/ml) (Life Technologies) in a humidified incubator with 5% CO2.
# The effect of the mutants on TNF release from Murine macrophage-like RAW 264.7 cells (ATCC) was carried out as follows. RAW 264.7 cells were cultured in RPMI 1640 medium (Life Technologies, Grand Island, N.Y.) supplemented with 10% fetal bovine serum (Gemini, Catabasas, Calif.), penicillin and streptomycin (Life Technologies). Polymyxin (Sigma, St. Louis, Mo.) was added at 100 units/ml to suppress the activity of any contaminating LPS. Cells were incubated with 1 μg/ml of full length (wild-type) HMGB1 and each HMGB1 mutant protein in Opti-MEM I medium for 8 hours. Conditioned supernatants (containing TNF which had been released from the cells) were collected and TNF released from the cells was measured by a standard murine fibroblast L929 (ATCC) cytotoxicity bioassay (Bianchi et al., supra) with the minimum detectable concentration of 30 pg/ml. Recombinant mouse TNF was obtained from R & D Systems Inc., (Minneapolis, Minn.) and used as control in these experiments. Data in FIG. 1 are all presented as mean±SEM unless otherwise indicated. (N=6−10).
# (§1) To further examine the effect of HMGB1 B box on cytokine production, varying amounts of HMGB1 B box were evaluated for the effects on TNF, IL-1B, and IL-6 production in murine macrophage-like RAW 264.7 cells. Conditioned media were harvested and measured for TNF, IL-1β and IL-6 levels. TNF levels were measured as described herein, and IL-1β and IL-6 levels were measured using the mouse IL-1β and IL-6 enzyme-linked immunosorbent assay (ELISA) kits (R&D System Inc., Minneapolis, Minn.) and N>5 for all experiments.
# The kinetics of B box-induced TNF release were also examined. TNF release and TNF mRNA expression were measured in RAW 264.7 cells induced by B box polypeptide or GST tag polypeptide only (used as a control (vector)) (10 μg/ml) for 0 to 48 hours. Supernatants were analyzed for TNF protein levels by an L929 cytotoxicity assay (N=3-5) as described herein. For mRNA measurement, cells were plated in 100 mm plates and treated in Opti-MEM I medium containing B box polypeptide or the vector alone for 0, 4, 8, or 24 hours, as indicated in FIG. 2D. The vector only sample was assayed at the 4 hour time point. Cells were scraped off the plate and total RNA was isolated using the RNAzol B method in accordance with the manufacturer's instructions (Tel-Test “B”, Inc., Friendswood, Tex.). TNF (287 bp) was measured by RNase protection assay (Ambion, Austin, Tex.). Equal loading and the integrity of RNA was verified by ethidium bromide staining of the RNA sample on an agarose-formaldehyde gel. […] TNF mRNA expression was maximal at 4 hours and decreased at 8 and 24 hours. […] A similar study was carried out measuring TNF protein released from RAW 264.7 cells 0, 4, 8, 24, 32 or 48 hours after administration of B box or vector only (GST tag), using the L929 cytotoxicity assay described herein. […]
# RAW 264.7 cells [3] = test: IL-6 release from RAW 264.7 cells (ELISA); format: cell-based, murine; conditions: B box 0-10 μg/ml, 8 hours (FIG. 2C)
# Method: as §1
# C3H/HeJ mice = test: Lethality and histology in C3H/HeJ mice; format: in vivo; conditions: 8 hours after administration
Molecule,125I-HMGB1 binding over time (RAW 264.7 cells [1]),"TNF protein release over time (RAW 264.7 cells [2]; 10 μg/ml, 0-48 hours, compared to medium only (FIG. 2E))","TNF release, dose response (RAW 264.7 cells [2]; B box 0-10 μg/ml, 8 hours (FIG. 2A))","IL-6 release, dose response (RAW 264.7 cells [3])",histology of liver (C3H/HeJ mice)
B1,saturable first order binding kinetics,–,–,–,–
B2,–,stimulated TNF protein expression,increased with increased amounts of B box,IL-6 release from RAW 264.7 cells increased with increased amounts of B box,"mild acute inflammatory responses, with some hepatocyte dropout and apoptosis"
